{"source": "the nanobody polyreactivity screen of Harvey et al. (2022)"}
{"test": "yeast display, Sf9 membrane polyspecificity reagent, FACS + sequencing; frameworks hold sequencing errors", "procedure,_shortened": "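A synthetic nanobody library was expressed on Saccharomyces cerevisiae BJ5465 by galactose induction for 36–48 hours. The library was stained for 1 hour at 4 °C with 10% biotinylated, detergent-solubilized Sf9 membrane reagent and enriched with streptavidin microbeads before FACS. Low and high (top ~1%) gates were set on anti-HA fluorescence for expression and streptavidin fluorescence for reagent binding, and each polyreactivity label reflects the gate of origin.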"}
{"sequence": "QVQIVESGGGLVQAGGSLRLSCAASGRIFYWNVMGWYRQAPGKERELVAAITRSSGGTSTYADSVKGRFTISRVNAKNTVYLQMNSLKPEDTAVYYCATRRRQAKSGRAYDYWGQGTQVTVSS", "polyreactivity (PSR sort gate)": "high polyreactivity"}
{"sequence": "QVQLVESGGGLVQAGGSLRLSCAASGRIFPYYVMGWYRQAPGKERELVASISSGGNTNYADSVKGRFTISRDNAKNTVYLQMNSLKPEDTAVYYCAARWRRKGYYWARFDYWGQGTQVTVSS", "polyreactivity (PSR sort gate)": "high polyreactivity"}
{"sequence": "QVQLVESWGGLVQAGGSLRLSCAASGRIIDRKAMGWYRQAPGKERELVAAISSSGSTNYADSVKGRFTFSRDNAKNTVYLQMISLKPEDTSVYYCAARWRSVLAAGTRPVSFDYWGQGTQVTVSS", "polyreactivity (PSR sort gate)": "low polyreactivity"}
{"sequence": "QVQLVESGGGLVQAGGSLRLSCAASGITFQWYAMGWYRQAPGKERELVAAITYRGGSTYYADSVKGRFTISRDNAKNTVYLQMNSLKPEDTAVYYCARDHSRHLHPSWLDYWGQGTQVTVSS", "polyreactivity (PSR sort gate)": "high polyreactivity"}
{"sequence": "QVQLVESGGGLVQAGGSLRLSCAASGSTIQQYAMGWYRQAPGKEREFVAAISWRGGRTYYADSVKGRFTISRDNAKNTVSLQMNSLKPEDTAVYYCAVDPSIYRLSAYYYDYWGQGTQVTVSS", "polyreactivity (PSR sort gate)": "low polyreactivity"}
{"sequence": "QLQLVESGGGLVQAGGSLRLSCAASGRIRYIAIGWYRQAPWKERELVAAITSSGGSTYYADSVKGRFTISRDNAKYTVDLQMNRLKPEDTAVYYCNAVASLSVDYWGQGTQVTVSS", "polyreactivity (PSR sort gate)": "high polyreactivity"}
{"sequence": "QVQLVESGGGLVQAGGSLRLSCAASGFTFPGYAMGWYRQAPGKERELVAAISKRGGSTYYADSVKGRFTISRDNAKNTVYLQMNSLKPEDTAVYYCAKSRRGSFYYPYTYTKSGYEYWGQGTQVTVSS", "polyreactivity (PSR sort gate)": "high polyreactivity"}
{"sequence": "QVQLVESGGGLVQAGGSLRLSCAASGRTFPQYAMGWYRQAPGKERELVASITSRSGRTYYADSVKGRFTISRDNAKNTVYLQMNSLKPEDTAVYYCNAVSSWWYMNYWGQGTQVTVSS", "polyreactivity (PSR sort gate)": "high polyreactivity"}
{"sequence": "QVQLVESGGGIVQAGGSLRLRCAASGFIFAVNAKGWYRQAPGKESELVAAISSSGTTNYADSVKGRFTISRDNAKNTVYLQMNSLKPEDTAVYYCNKRWRDKYPQYDYWGLGTQVTVSS", "polyreactivity (PSR sort gate)": "low polyreactivity"}
{"sequence": "QVQLVESGGGLVQAGGSLRLSCASSGITFYVYAMGWYRQAPGKERELVASISWNGGRTYYADSVKGRFTISRDNAKNTVYLQMNSLKPEDTAVYYCAARAYSYWSGLDYWGQGTQVTVSS", "polyreactivity (PSR sort gate)": "high polyreactivity"}
{"sequence": "QVQLVESGGGLVQAGGSLRLSCAASGRIFEEYAMGWYRQAPGKERELVAAITWGGSTYYADSVKGRFTISRDNAKNTVYLQMNSLKPEDTAVYYCAALKSYYWYTPRYRGDYWGQGTQVTVSS", "polyreactivity (PSR sort gate)": "low polyreactivity"}
{"sequence": "QVQLVESGGGLVQAGGSLRLSCAASGFTFPKYAMGWYRQAPGKERELVAGITTGGSTYYADSVKGRFTISRDNAKNTVYLQMNSLKPEDTAVYYCAASGRLSLGGRFYDLGLRYDYWGQGTQVTVSS", "polyreactivity (PSR sort gate)": "low polyreactivity"}
{"sequence": "PVQLVESGGGLVQAGGSLRLSCAASGSTFLYSAMGWYRQAPGKERELVAGISAAGGSSYYADAVKGRFTISRDNAKNTVYIQMNSLKPEDTAVYYCNATRVVIRHSYDYWGQGTQVTVSS", "polyreactivity (PSR sort gate)": "high polyreactivity"}
{"sequence": "QVQLVESGGVLVQPGGSLRLSCAASGSTFQSYTMGWYRQAPGKERELVAAISSSGGRTYYADSVKGRFTISRDNEKNTVYLQMNRLKPEDTAVYYCAAVTKSWRGATWYDYWGQGTHVTVSS", "polyreactivity (PSR sort gate)": "high polyreactivity"}
{"sequence": "QVQLVESGGGLVQAGGSLRLSCAASGSISYIYTMGWYRQAPGKERELVAAISGSGSTYYADSVKGRFTISRDNAKNTVYLQMNSLKPEDTAVHYCNAGSGGLNFQEVPQGYDYWGQGTQVTVSS", "polyreactivity (PSR sort gate)": "low polyreactivity"}
{"sequence": "QVQLVESGGGLVQAGGSLRLSCAASVFTVYGMGWYRQAPGKERELVAAISTGGNTYYADSVKGRFTISRDNAKNTVYLQMNSLKPEDTAVYYCNRRYRYYGLWYGYWGQGTQVTVSS", "polyreactivity (PSR sort gate)": "high polyreactivity"}
{"sequence": "QVQLVETGGGLVQAGGSLRLSCAASGSTFQLYAMGWYRQAPGKERDFVAAISNGGRTNYADSVKGRFTISRDNAKNTVYLQMTSLKPEDTAVYYCNADQVWWSFDRVLVGYEYWGKGTQVTVSS", "polyreactivity (PSR sort gate)": "low polyreactivity"}
